The target in test [1] is T1, streptavidin Alexa Fluor 647 (UniProt P22629 37-163).
T1 construct: also called SA-AF647; streptavidin-AF 647
The test can be described thus: yeast-surface display flow cytometry, secondary reagent alone, geometric MFI. A general note: In flow cytometry, cells or beads pass a laser one at a time.

For test [2], the target named is H6BA (Mycobacterium tuberculosis). The test can be described thus: yeast-surface display flow cytometry, specificity test.
In test [3] the target is T2, H2BA (Mycobacterium tuberculosis). Described as above.
Test [4] concerns the target H7BA (Mycobacterium tuberculosis). Described as above.
Test [5] concerns the target H1BA (Mycobacterium tuberculosis). The description is as above.
The target in test [6] is T2, H2BA. The test can be described thus: yeast-surface display; validated conditions not given.

T1 sequence (P22629 37-163 limits assumed): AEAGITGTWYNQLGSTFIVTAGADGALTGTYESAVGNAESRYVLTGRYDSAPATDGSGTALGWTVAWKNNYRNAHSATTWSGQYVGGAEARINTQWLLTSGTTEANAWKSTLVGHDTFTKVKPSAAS

B1: rcSso7d.Rv1656 (yeast-surface displayed) (designed binder)
chain: MATVKFTYQGEEKQVDISKIKWVRRYGQYIGFSYDEGGGAWGKGYVSEKDAPKELLQMLEKQ
notes: also called rcSso7d.H4.2; H4.2
B1: the binding result in test [1] is listed as “no binding”.

B2: rcSso7d.H1BA.3 (designed binder)
chain: MATVKFTYQGEEKQVDISKIKHVIRNGQYIIFAYDEGGGAYGGGWVSEKDAPKELLQMLEKQ
notes: also called 1.E2.2
Regarding B2, the “% positive” value in test [2] worked out at 0.9%; in test [3], 0.9%; in test [4] it was 1.3%; in test [5] it was 71.5%.

B3: rcSso7d.H2BA.2 (designed binder)
chain: MATVKFTYQGEEKQVDISKIKYVGRWGQNIGFAYDEGGGAYGYGGVSEKDAPKELLQMLEKQ
With B3, in test [6], the binding result is “binds”.

Source of the values: US20190113512A1 (MIT, published 2019).
